Drawing on US20240239864A1, this text covers Mean Fluorescence Intensity (surface HLA-A2) for one molecule.

The target in the assay is HLA-A2 (HLA-A*02:01) on cells (T2 cells; K562A2 cells) (human). As to the kind of experiment: T2 peptide-binding assay: T2 cells with peptide at 100 µg/mL overnight, surface HLA-A2 by flow cytometry (T2 only: 3.34E+05). Particulars: remark: other sources report otherwise.

B1: KKLC1 p52-60 peptide (HLA-A1 restricted control), Q5H943 52-60 (peptide, UniProt Q5H943 52-60, looked up)
peptide: NTDNNLAVY
B1: the Mean Fluorescence Intensity (surface HLA-A2) stood at 305000.
